The source of these data is patent publication US20260152567A1 (CSPC MEGALITH BIOPHARMACEUTICAL, published 2026).

In assay [1] the target is T1, human CD73 on the cell surface (MDA-MB-231 and SKOV3 tumor cells) (human, UniProt P21589 27-549).
T1 construct: whole, on cells; also called cell surface CD73; CD73 on the surface of human tumor cells
T1 sequence (looked up): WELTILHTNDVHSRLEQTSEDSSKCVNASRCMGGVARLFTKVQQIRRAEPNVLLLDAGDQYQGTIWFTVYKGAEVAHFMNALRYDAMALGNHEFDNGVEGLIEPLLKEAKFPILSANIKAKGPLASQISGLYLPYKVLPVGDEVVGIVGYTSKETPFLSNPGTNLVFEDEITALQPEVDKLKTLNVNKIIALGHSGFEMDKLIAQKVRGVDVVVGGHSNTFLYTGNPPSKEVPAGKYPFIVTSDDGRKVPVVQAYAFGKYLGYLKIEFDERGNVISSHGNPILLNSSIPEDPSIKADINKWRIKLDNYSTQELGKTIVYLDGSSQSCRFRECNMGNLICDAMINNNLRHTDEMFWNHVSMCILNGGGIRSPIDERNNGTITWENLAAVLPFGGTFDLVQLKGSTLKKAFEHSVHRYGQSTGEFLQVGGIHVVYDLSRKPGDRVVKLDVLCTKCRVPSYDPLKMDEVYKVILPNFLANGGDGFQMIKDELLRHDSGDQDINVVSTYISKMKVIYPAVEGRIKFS
Put plainly: flow cytometry on MDA-MB-231 cells. As to the method:
In this example, the exemplary antibodies of the present application were compared with anti-CD73 antibodies described in other patent applications. Antibodies MEDI9447 and Hu101-28 (with CDR sequences from PCT patent applications WO 2016/075099 and WO 2018/137598, respectively) were cloned into eukaryotic expression vectors containing the hIgG1-kappa constant region. The binding ability of the humanized antibodies Hab7C3C2.5 and Hab1F2F9.15 to cell surface CD73 was assessed using tumor cell lines MDA-MB-231 and SKOV3 which endogenously express human CD73 on the cell surface. The cells were seeded in a 96-well plate at a density of 2×10⁶ cells/mL, with 100 μL per well. 4-fold gradient dilutions (0-100 nM) of the antibodies were added, and the mixture was incubated at 4° C. for 1 h. A goat anti-human secondary antibody was added, and the mixture was incubated at 4° C. in the dark for 50 min for labeling. The fluorescence intensity of the cells was then measured by a flow cytometer.
A general note: Flow cytometry measures light scatter and fluorescence of single cells or particles in a stream.

In assay [2] the target is T2, N-terminal portion of the CD73 protein (Homo sapiens (Human), UniProt P21589 27-317, limits assumed).
T2 construct: also called CD73 N-terminal protein; N-terminus of the CD73 protein
T2 sequence: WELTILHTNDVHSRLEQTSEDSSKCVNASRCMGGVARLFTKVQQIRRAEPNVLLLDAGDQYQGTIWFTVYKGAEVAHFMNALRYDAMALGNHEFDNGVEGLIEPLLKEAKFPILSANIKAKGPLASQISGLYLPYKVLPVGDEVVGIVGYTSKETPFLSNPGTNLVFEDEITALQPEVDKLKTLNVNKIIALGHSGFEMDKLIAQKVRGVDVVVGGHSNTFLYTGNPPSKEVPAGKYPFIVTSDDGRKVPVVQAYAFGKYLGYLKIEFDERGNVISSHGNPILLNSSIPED
The assay can be described thus: ELISA, plate coated with CD73 N-terminal protein at 1 µg/mL. Here is the method: In this example, the C-terminal portion (SEQ ID NO. 41) and the N-terminal portion (SEQ ID NO. 42) of the CD73 protein were separately constructed, and the epitopes recognized by the antibodies were detected by ELISA method. Elisa plates were respectively coated with the CD73 N-terminal and C-terminal proteins at a concentration of 1 μg/mL. The test antibodies were diluted in a gradient.
For orientation: An ELISA detects its analyte on a solid surface through an enzyme-linked reagent.

B1: Hab1F2F9.15 (antibody, human IgG1, kappa, L234A L235A, V domains shown)
VH: QVQLVQSGAEVKKPGASVKVSCKASGYTFTSYWMHWVRQAPGQRLEWMGNINPSNGGTKYSQKFQGRVTITVDTSASTAYMELSSLRSEDTAVYYCARRDYGSPSYWGQGTTVTVSS
VL: DIQMTQSPSSLSASVGDRVTITCKASQDINSYLTWFQQKPGKAPKSLIYRTNILLDGVPSRFSGSGSGTDYTLTISSLQPEDFATYYCLQYHEFPVTFGGGTKLEIKR
notes: Humanized 1F2F9; also called Huab1F2F9.15; HuablF2F9.15
On to B1, for which the concentration giving a half-maximal response (EC50) (usually the concentration giving half of the maximal effect) in assay [1] turned out to be 0.48 nM. Also, the binding result in assay [2] is given as “no binding”.

B2: Hab7C3C2.5 (antibody, human IgG1, kappa, L234A L235A, V domains shown)
VH: QVQLVQSGAEVKKPGASVKVSCKASGYTFTSYDINWVRQATGQGLEWIGWIYPRDGFTKYNEKFKGRVTLTVNTSISTAYMELSSLRSEDTAVYYCARKEGYRGDWYFDVWGQGTTVTVSS
VL: DIQMTQSPSSLSASVGDRVTITCRASGNVHNYLAWYQQKPGKAPKLLLYNAKTLASGVPSRFSGSGSGTDYTLTISSLQPEDFATYYCQHFWSTPWTFGGGTELEIKR
notes: Humanized 7C3C2; also called Hab7C3C.5
B2: in assay [1], the midpoint of the response, the EC50, lay at 0.41 nM. Moreover, the binding result in assay [2] is “no binding”.
